{"source": "patent US20220143148A1", "about": "“COMPOSITIONS AND METHODS FOR MODULATING CGRP SIGNALING TO REGULATE INTESTINAL INNATE LYMPHOID CELLS” (The Broad Institute, Inc., priority 2019, published 2022)", "molecules": {"B1": {"name": "OVA (protein, UniProt P01012 2-386, looked up)", "Ovalbumin": "GSIGAASMEFCFDVFKELKVHHANENIFYCPIAIMSALAMVYLGAKDSTRTQINKVVRFDKLPGFGDSIEAQCGTSVNVHSSLRDILNQITKPNDVYSFSLASRLYAEERYPILPEYLQCVKELYRGGLEPINFQTAADQARELINSWVESQTNGIIRNVLQPSSVDSQTAMVLVNAIVFKGLWEKAFKDEDTQAMPFRVTEQESKPVQMMYQIGLFRVASMASEKMKILELPFASGTMSMLVLLPDEVSGLEQLESIINFEKLTEWTSSNVMEERKIKVYLPRMKMEEKYNLTSVLMAMGITDVFSSSANLSGISSAESLKISQAVHAAHAEINEAGREVVGSAEAGVDAASVSEEFRADHPFLFCIKHIATNAVLFFGRCVSP"}}, "test_system": "small intestinal immune cells", "assay": "Droplet-based scRNA-seq of small intestinal immune cells (LP and PP), OVA vs PBS, clustering and differential expression", "format": "in vivo, mouse", "conditions": "cluster ID 6, PP", "from_the_text": "To comprehensively characterize small intestinal immune cells, Applicants generated scRNA-Seq profiles for 58,067 immune cells collected from lamina propria (LP) and Peyer's patch (PP) regions at steady state and after induction of a type 2 inflammatory reaction to ovalbumin (OVA) (Brandt et al., 2003) (FIGS. 1A and 8A). To ensure sufficient representation of rare cells, Applicants combined a normalization strategy—removing by flow sorting either a portion of IgD+ naïve B cells, which are the most abundant cell type in PPs, or all CD19+ and CD3+ T cells (FIG. 8B, Methods)—with profiling of a sufficiently large number of cells number (P>0.99 to recover at least 15 cells from each cluster, Methods) by massively parallel scRNA-seq (Haber et al., 2017) (Methods). Applicants obtained 36,797 and 21,270 high quality cells passing initial filtering (Methods) from PP and LP regions, respectively.\nOverall, Applicants annotated 27 cell subsets across the two compartments, spanning T cells, B cells, ILCs, dendritic cells (DCs), myeloid cells and stromal cells, in frequencies ranging from 0.07% to 14%. Briefly, Applicants first partitioned the cells from the PP regions by unsupervised clustering (Methods) into 46 clusters, retained the 97% of cells that were robustly assigned cell identities in each cluster (Methods), assigned the cells from the LP regions to the 46 clusters using a classifier (Methods), and visualized the data with scvis (Ding et al., 2018), a deep generative model-based method (FIGS. 1B and 8C, Methods). Next, Applicants identified genes that were differentially expressed between the cells in each cluster and the remaining cells (Table 1, Methods), as well as between pairs of clusters (Table 2), to elucidate identities of similar cell types/states. Applicants excluded from downstream analysis clusters mostly consisting of contaminants from epithelium, likely doublets, or cells with a small number of Unique Molecular Identifiers (UMIs) (FIGS. 1C and 8D), or lacking distinct markers (Methods). Altogether, Applicants retained 27 clusters spanning 85% of the cells and each associated with distinct marker genes (FIG. 8E, Methods).\nTo induce allergic reaction to OVA, 6 to 7 weeks old mice were sensitized twice, two weeks apart, with 50 μg of OVA plus 1 mg of aluminum potassium sulfate adjuvant via intraperitoneal injection. Two weeks later, mice were orally administered with 50 mg of OVA on every other day for a total of five times. 1 μg of α-CGRP peptide was administered simultaneously when indicated. Mice were deprived of food for 3-4 hours in cages with wood chip bedding for limiting antigen degradation in the stomach before each intragastric challenge.\nIsolation of cells from Peyer's patches (PPs). Peyer's patches (PPs) were carefully dissected from the small intestine under a stereo microscope using a fine scissor, pierced once with a fine forcep. Tissues were digested in freshly made digestion buffer (RPMI-1640 containing 100 μg/ml Liberase™ and 50 μg/ml DNase I at 37° C. on a roto-mixer. After 15 min, tissues were very gently mixed using a 1 ml pipette. The supernatant was collected and added to ice-cold MACS buffer (pH 7.4; PBS plus 2% FCS and 2 mM EDTA). Pre-warmed (37° C.) fresh digestion buffer was added to the remaining tissues. After rotation at 37° C. for 15 min, the mixture was vigorously mixed using a 1 ml pipette for 1 min. Supernatants from the two steps were combined and passed through 70 μm filters and stained for FACS (below).\nIsolation of cells from the lamina propria (LP). The small intestines were opened longitudinally and washed in ice-cold PBS. For scRNA-seq, roughly 0.5 cm of fragments from each of the distal, middle and proximal regions without visible PPs were collected. Epithelial cells were dissociated by tissue rotation in pre-warmed (37° C.) PBS containing 10 mM EDTA at 37° C. for 15 min, followed by additional incubation on ice for 15 min. Tissues were then shaken vigorously. […]"}
{"molecule": "B1", "values": [{"measurement": "Mcpt1: percentage of expressing cells in OVA-treated group", "value": 0.35}, {"measurement": "Mcpt2: percentage of expressing cells in OVA-treated group", "value": 0.212}, {"measurement": "Mir142hg: percentage of expressing cells in OVA-treated group", "value": 0.169}, {"measurement": "Mpeg1: percentage of expressing cells in OVA-treated group", "value": 0.992}, {"measurement": "Napsa: percentage of expressing cells in OVA-treated group", "value": 0.888}, {"measurement": "Neat1: percentage of expressing cells in OVA-treated group", "value": 0.885}, {"measurement": "Nfkbia: percentage of expressing cells in OVA-treated group", "value": 0.661}, {"measurement": "Nfkbiz: percentage of expressing cells in OVA-treated group", "value": 0.336}, {"measurement": "Npc2: percentage of expressing cells in OVA-treated group", "value": 0.985}, {"measurement": "Nr4a1: percentage of expressing cells in OVA-treated group", "value": 0.508}, {"measurement": "Nr4a3: percentage of expressing cells in OVA-treated group", "value": 0.134}, {"measurement": "Odc1: percentage of expressing cells in OVA-treated group", "value": 0.366}, {"measurement": "Os9: percentage of expressing cells in OVA-treated group", "value": 0.441}, {"measurement": "Pik3ip1: percentage of expressing cells in OVA-treated group", "value": 0.423}, {"measurement": "Pim1: percentage of expressing cells in OVA-treated group", "value": 0.509}, {"measurement": "Plek: percentage of expressing cells in OVA-treated group", "value": 0.617}, {"measurement": "Plekho2: percentage of expressing cells in OVA-treated group", "value": 0.201}, {"measurement": "Pltp: percentage of expressing cells in OVA-treated group", "value": 0.878}, {"measurement": "Pnrc1: percentage of expressing cells in OVA-treated group", "value": 0.706}, {"measurement": "Ppia: percentage of expressing cells in OVA-treated group", "value": 0.998}, {"measurement": "Ppp1r16b: percentage of expressing cells in OVA-treated group", "value": 0.237}, {"measurement": "Ppp2ca: percentage of expressing cells in OVA-treated group", "value": 0.539}, {"measurement": "Psap: percentage of expressing cells in OVA-treated group", "value": 0.997}, {"measurement": "Ptp4a1: percentage of expressing cells in OVA-treated group", "value": 0.4}, {"measurement": "Ptpre: percentage of expressing cells in OVA-treated group", "value": 0.392}, {"measurement": "Rel: percentage of expressing cells in OVA-treated group", "value": 0.381}, {"measurement": "Rgs1: percentage of expressing cells in OVA-treated group", "value": 0.466}, {"measurement": "Rilpl2: percentage of expressing cells in OVA-treated group", "value": 0.851}, {"measurement": "Rnase6: percentage of expressing cells in OVA-treated group", "value": 0.991}, {"measurement": "Rnf19b: percentage of expressing cells in OVA-treated group", "value": 0.255}, {"measurement": "Rpn2: percentage of expressing cells in OVA-treated group", "value": 0.664}, {"measurement": "Runx3: percentage of expressing cells in OVA-treated group", "value": 0.53}, {"measurement": "S1pr4: percentage of expressing cells in OVA-treated group", "value": 0.351}, {"measurement": "Sell: percentage of expressing cells in OVA-treated group", "value": 0.983}, {"measurement": "Selplg: percentage of expressing cells in OVA-treated group", "value": 0.992}, {"measurement": "Sf3b1: percentage of expressing cells in OVA-treated group", "value": 0.706}, {"measurement": "Siah2: percentage of expressing cells in OVA-treated group", "value": 0.253}, {"measurement": "Skil: percentage of expressing cells in OVA-treated group", "value": 0.435}, {"measurement": "Sla2: percentage of expressing cells in OVA-treated group", "value": 0.735}, {"measurement": "Smc6: percentage of expressing cells in OVA-treated group", "value": 0.849}, {"measurement": "Socs3: percentage of expressing cells in OVA-treated group", "value": 0.55}, {"measurement": "Spsb2: percentage of expressing cells in OVA-treated group", "value": 0.187}, {"measurement": "Tgif1: percentage of expressing cells in OVA-treated group", "value": 0.115}, {"measurement": "Tnfaip8l2: percentage of expressing cells in OVA-treated group", "value": 0.512}, {"measurement": "Traf4: percentage of expressing cells in OVA-treated group", "value": 0.535}, {"measurement": "Trim25: percentage of expressing cells in OVA-treated group", "value": 0.339}, {"measurement": "VgIl4: percentage of expressing cells in OVA-treated group", "value": 0.34}, {"measurement": "Vps37b: percentage of expressing cells in OVA-treated group", "value": 0.424}, {"measurement": "Wnk1: percentage of expressing cells in OVA-treated group", "value": 0.605}, {"measurement": "Zc3h12a: percentage of expressing cells in OVA-treated group", "value": 0.135}, {"measurement": "Zfand5: percentage of expressing cells in OVA-treated group", "value": 0.423}, {"measurement": "Zfp36l2: percentage of expressing cells in OVA-treated group", "value": 0.783}, {"measurement": "AY036118: LN (average fold change)", "setting": "OVA vs PBS", "value": "−0.256"}, {"measurement": "Atf3: LN (average fold change)", "setting": "OVA vs PBS", "value": "−0.693"}, {"measurement": "Atp5h: LN (average fold change)", "setting": "OVA vs PBS", "value": 0.168}, {"measurement": "B3gnt8: LN (average fold change)", "setting": "OVA vs PBS", "value": 0.265}, {"measurement": "Bcl2l11: LN (average fold change)", "setting": "OVA vs PBS", "value": "−0.499"}, {"measurement": "Bhlhe40: LN (average fold change)", "setting": "OVA vs PBS", "value": "−0.297"}, {"measurement": "Bloc1s2: LN (average fold change)", "setting": "OVA vs PBS", "value": 0.218}, {"measurement": "Btg2: LN (average fold change)", "setting": "OVA vs PBS", "value": "−0.156"}, {"measurement": "Ccl4: LN (average fold change)", "setting": "OVA vs PBS", "value": 0.241}, {"measurement": "Cd68: LN (average fold change)", "setting": "OVA vs PBS", "value": 0.204}, {"measurement": "Cd83: LN (average fold change)", "setting": "OVA vs PBS", "value": "−0.472"}, {"measurement": "Cdv3: LN (average fold change)", "setting": "OVA vs PBS", "value": "−0.219"}, {"measurement": "Clcn3: LN (average fold change)", "setting": "OVA vs PBS", "value": "−0.239"}, {"measurement": "Clec10a: LN (average fold change)", "setting": "OVA vs PBS", "value": 0.327}, {"measurement": "Clec2d: LN (average fold change)", "setting": "OVA vs PBS", "value": 0.409}, {"measurement": "Coq10b: LN (average fold change)", "setting": "OVA vs PBS", "value": "−0.336"}, {"measurement": "Crem: LN (average fold change)", "setting": "OVA vs PBS", "value": "−0.279"}, {"measurement": "Cxcr3: LN (average fold change)", "setting": "OVA vs PBS", "value": 0.302}, {"measurement": "Cxcr4: LN (average fold change)", "setting": "OVA vs PBS", "value": 0.491}, {"measurement": "D13Ertd608e: LN (average fold change)", "setting": "OVA vs PBS", "value": 0.276}, {"measurement": "Ddit4: LN (average fold change)", "setting": "OVA vs PBS", "value": 1.322}, {"measurement": "Ddx3x: LN (average fold change)", "setting": "OVA vs PBS", "value": "−0.202"}, {"measurement": "Defa24: LN (average fold change)", "setting": "OVA vs PBS", "value": "−1.145"}]}
